From the nanobody polyreactivity screen of Harvey et al. (2022)

Assay: yeast display, Sf9 membrane polyspecificity reagent, FACS + sequencing; frameworks hold sequencing errors
How it was run: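 A nanobody's polyreactivity label depends on the gate it was sorted from. Yeast display cells were stained with 10% biotinylated, detergent-solubilized Sf9 membrane reagent for 1 hour at 4 °C, enriched on streptavidin microbeads and sorted by FACS. The low and high (top ~1%) gates were set on anti-HA fluorescence for expression and streptavidin fluorescence for reagent binding.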

Sequence	polyreactivity (PSR sort gate)
QVQLVESGGGLVQAGGSLRLSCAASGSIFPTYAMGWYRQAPGKERELVAAIRSGSNTYYADSLKGRFTISRDNAKNTDYLQMNCLKPEDTAVYYCNVGPQRKYPGRRTVPFGYWGQGTQVTVSS	low polyreactivity
QVQLVESGGGLVQAGGSLRLSCAASGRIFHGYVMGWYRQAPGKERELVAAINQSGTSTYYADSVKGRFTISRDNAKNTVYLQMNSLKPEDTAVYYCAKDWAYRRHWVGFYYWGQGTQVTVSS	low polyreactivity
QVQLVESGGGLVQAGGSLRLSCAASGSILQQIYAMGWYRPAPGKERELVAAISASGGSTYYADSVKGRFTISRDNAKNTVYLQMNSLKPEDTAVYYCNKVGYYASVLGYDYWGQGTQVTVSS	high polyreactivity
QVQHVESGGGLVQAGGSLRLSCAASGSIIPSNVMGWYRQATGKEREFVAGITFRVGSTYYADSVKGRFTISLDNAKNTVYLQMNSLKPEDTAVYYCAALIRAVDRYTYRYGYWGQGTQVTVSS	high polyreactivity
QVQLVESGGGLVQAGGSLRLSCAASGRIFQIYAMGWYRQAPGKERELVATISSGTRTYYADSVKGRFTISRDNAKNTVYLQMNSLKPEDTAVYYCNTGLVYGYDYWGQGTQVTVSS	high polyreactivity
QVQLVESVGGLVQAGGSLRLSCAASGRTIHFNTMGWYRQAPGKERELVAAIRWGGNTYYADSVKGRFTISRDNAKNTVYLQMNSLKPEDTAVYYCAADRWYYFLMYYWGQGTQVTVSS	low polyreactivity
QVQLVESGGGLVQAGGSLRLSCAASGSRFSHYSMGWYRQAPGKERDLVATITGTGVRTSYADSVKGRFTISRDNAKNTVYLQMNSLKAEDTAVYYCAADGDYDPNLYGYWGQGTQVTVSS	low polyreactivity
QVQLVESGGGLVQAGGSLRLSCAASGRIFGVYAMGWYRQAPGKERELVAAIRGGGSTKYADSVKGRFTISRDNAKNTVYLQMNSLKPEDTAVYYCAARKRYYKHDYWGQGTQVTVSS	low polyreactivity
QVQLVESGGGLVQAGGSLRLSCAASGSIFRSYGMGWYRQAPGKDRELVPSISRRGGSTYYADSVKGRFTISRDNAKNTVYLQTNSLKPEDTAVYYCAAVRYNSRVSTTPSEMYYWGQGTQVTVSS	low polyreactivity
QVQLVESGGGLVQAGGSLRLSCVASGRTLNYNVMGWYRQAPGKERELVAAISWSGGSTYADSVKGRFTISRDNAKNTVYLQMNSLKPEDTAVYYCNKRFTTRVNRRPVYYWGQGTQVTVSS	low polyreactivity
QVQLVESGGGLVQAGGSLSLSCAASGSIFDVNAMGWYRQAPGKERELVAAISDSGGSTYYADSVKGRFTISRDNAKNTVHLQMNSLKAEDTAVYYCNADWSWYNYYDFDYWGQGTQVTVSS	low polyreactivity
QVQLVESGGGLVQAGGSLRLSCAASGSTTSVNAMGWYTQAPGKEREFVATISFGGGRTYYADSVKGRFTISRDNAKNTVYLQRNSRKPEDTAVYYCAAVGSRWFSQTWRDYWGQGTQVTVSS	high polyreactivity
QVQLVESGGGLVQAGGSLRLSCAASGGIFDRYAMGWYRQAPGKERELVAGITWSGGRTYYADSVKGRFTISRDNAKNTVYLQMNSLKPEDTAVYYCAASLYTWTYQPVYYRDGYWGQGTQVTVSS	low polyreactivity
QVQLVESAGGLVQAGGSLRLSCAASGFIFFGNAMGWYRQAPGKERALVAVITWSGGSTYADSVKGRFTISRDNAKNPVYLQMNSLKPEDTAVYYSAADQQTWWQYSLINEYDYWGQGTQVTVTS	low polyreactivity
QVQLVESGGGLVQAGGSLRLSCAASGRTFAAYAMGWYRQAPGKERELVAAIRRGGTTNYADSVKGRFTISRDNAKNTVYLQMNSLKPEDTAVYYCAALAPYSRSWVTYDYWGQGTQVTVSS	low polyreactivity
QVQLVESGGGLVQAGGSLRLSCAASGYIFGNYAMGCYRQAPGKERELVAAISKSGVTTYYADSVKGRFTISRDNAKNTVYLQMNSLKPEDTAVYYCNARSWRPINARYNEYDYWGQGTQVTVSS	low polyreactivity
QVQLVESGGGLVQAGGSLRLICAASGSIFIHNAMGWYRPAPGKERELVAGITTGGSTYYADSVKGRFTISRDNAKNTVYLQMNSLKPEDTAVYYCAVKRPVALTRGNWVTEARDYWGQGTQVTVSS	low polyreactivity
